One series relates to WM266.4 cells. Put plainly: Cellular stability of transfected RNA by RT-PCR. It counts as in vitro ADME, human. The settings on record: 4, 8, 12 and 24 h after transfection. The protocol: (§1) FIG. 6A-FIG. 6D are a set of graphs showing that 2′F modification increases nuclease resistance, cytotoxicity and inflammatory cytokine induction of immunostimulatory 5′ppp ssRNAs. FIG. 6A is a graph showing ability of various modified ssRNAs to inhibit the growth of cells over concentration ranges. WM266-4 cells were treated with transfection reagent alone (mock) or the complex of transfection reagent and 5′ppp 10F containing 2′F pyrimidine, 2′OMe pyrimidine or unmodified pyrimidine (2′OH) at various concentrations. The viral dsRNA analog PolyI:C was used as an experimental control. Growth inhibition was assessed at 72 h post treatments using the MTT assay. FIG. 6B is a set of graphs showing cytokine induction after treatment with the indicated ssRNAs. WM266-4 cells were either treated with transfection reagent alone (mock) or the complex of transfection reagent and 5′ppp 2′OH 10F, 5′ppp 2′F 10F, 5′ppp 2′OMe 10F or poly I:C (0.5 μg/ml each). The secretion of IFNβ and IL-8 by the melanoma cells was analyzed at 24 h after treatment by ELISA. The data represent the mean of three experiments. Error bars represent the S.D.; *P<0.05 (5′ppp 2′F 10F vs 5′ppp 2′OH 10F); P<0.001 (5′ppp 2′OMe 10F vs 5′ppp 2′OH 10F). […] RNAs were analyzed on 12% polyacrylamide gels. […] At 4 h, 8, 12 and 24 h after transfection, total RNAs were isolated and cellular 10F RNA levels were analyzed by RT-PCR. […]

A further series deals with T1, human TLR3 (Homo sapiens, UniProt O15455).
T1 construct: host or cells: HEK293 (HEK-hTLR3-NFκB/SEAP)
T1 sequence (O15455 24-904): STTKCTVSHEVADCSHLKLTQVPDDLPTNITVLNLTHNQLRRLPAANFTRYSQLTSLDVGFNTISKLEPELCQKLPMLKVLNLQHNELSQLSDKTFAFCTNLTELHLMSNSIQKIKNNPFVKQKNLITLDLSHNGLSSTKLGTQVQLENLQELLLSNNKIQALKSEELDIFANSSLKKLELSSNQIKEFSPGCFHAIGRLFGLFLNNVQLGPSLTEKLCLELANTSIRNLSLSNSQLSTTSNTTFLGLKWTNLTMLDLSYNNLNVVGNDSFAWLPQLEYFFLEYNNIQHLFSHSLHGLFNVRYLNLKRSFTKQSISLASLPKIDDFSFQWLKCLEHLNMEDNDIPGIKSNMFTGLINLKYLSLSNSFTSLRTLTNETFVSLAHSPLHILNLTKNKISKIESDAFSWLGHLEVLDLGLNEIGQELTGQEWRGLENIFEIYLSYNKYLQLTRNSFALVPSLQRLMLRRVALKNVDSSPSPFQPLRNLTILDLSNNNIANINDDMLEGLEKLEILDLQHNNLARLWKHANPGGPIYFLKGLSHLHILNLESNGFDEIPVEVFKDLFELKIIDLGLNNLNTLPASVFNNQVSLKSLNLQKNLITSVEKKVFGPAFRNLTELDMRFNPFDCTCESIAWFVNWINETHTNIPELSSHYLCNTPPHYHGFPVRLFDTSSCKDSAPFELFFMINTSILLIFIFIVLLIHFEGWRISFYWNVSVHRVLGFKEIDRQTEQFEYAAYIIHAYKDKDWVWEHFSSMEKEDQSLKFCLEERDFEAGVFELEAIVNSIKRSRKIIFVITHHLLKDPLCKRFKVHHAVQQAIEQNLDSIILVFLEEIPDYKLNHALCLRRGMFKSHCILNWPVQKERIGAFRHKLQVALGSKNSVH
Put plainly: HEK-hTLR3-NFκB/SEAP reporter assay. It counts as cell-based. The following applies: QUANTI-BLUE. The protocol: The human TLR3 reporter cell, HEK-hTLR3-NFκB/SEAP was purchased from Invivogen. These cells were stably co-transfected with the human TLR3 gene and an inducible SEAP (secreted embryonic alkaline phosphatase) reporter gene into HEK293 cells. The SEAP gene is placed under the control of NF-κB and AP-1. […] SEAP gene expression was measured using the SEAP detection media QUANTI-BLUE (Invivogen), according to the manufacturer's instructions. FIG. 3B is a graph showing that TLR7 is not stimulated by the ssRNAs. Human TLR7-expressing HEK293 cells were kindly provided by Dr. Todd Brennan (Duke University, Durham, N.C.). Treatment with R848 but not with polyI:C, polyI:C-DF and 5′ppp 2′F 10F-DF complexes stimulated HEK-TLR7 cells to produce the inflammatory cytokine IL-8. The data represent the mean of two experiments. Error bars represent the S.D.

In the next series the test system is IL-8. The series can be described thus: IL-8 ELISA of transfected melanoma cell supernatants. It counts as cell-based, human. The following applies: 0.5 μg/ml, 24 h. The procedure: For the intracellular delivery of immune stimulatory RNAs, RNAs were transfected with the DharmaFECT® Duo liposomal transfection reagent (Thermo Scientific, Waltham, Mass.) at a transfection reagent (μl):RNA (μg) ratio of 3.75:1, according to the manufacturer's instructions. Unless otherwise stated, for the induction of innate immune responses and apoptosis, immune stimulatory RNAs (500 ng/ml) were transfected into 50 to 70% confluent cells. Cells were incubated with an RNA-transfection agent complex for 5 h, followed by replenishment with fresh culture medium. To electroporate cells, 1×10^5 cells suspended in 200 μl Opti-MEM I (Invitrogen) were mixed with 1 μg of immune stimulatory RNAs or 5 μg of 2'Fluoro pyrimidine ribonucleoside triphosphate in 2-mm cuvettes and were electroporated at 300 V for 500 μs using an Electro Square Porator ECM 830 (BTX, San Diego, Calif.). For the knockdown of RNA-sensing PRRs, cells were transfected with PRR-specific siRNAs (25 nM) twice at 2-day intervals using DharmaFECT®-1 (Thermo Scientific). At 5 h after the second siRNA transfection, cells were harvested, replated into a 96-well plate and incubated overnight. […] The production of human IL-8 was analyzed with a human IL-8 ELISA kit (eBioscience). IFN-β production was determined with a human IFN-β ELISA kit (PBL Biomedical Laboratories, Piscataway, N.J.) by following the manufacturer's instructions.
For orientation: An ELISA detects its analyte on a solid surface through an enzyme-linked reagent.

Series [1] is described as follows: Serum stability in 10% fetal bovine serum, polyacrylamide gel. It counts as in vitro ADME. The settings on record: 37° C., 0 to 24 h. The protocol:
as §1

Strand notation (5' to 3'): a small letter for the sugar, then the base; units joined by * are phosphorothioate-linked, units joined directly phosphodiester-linked; [ ] holds rarer units or linkages, { } end groups; capitals alone tell only the bases. {ppp} = triphosphate; r = 2'-OH (RNA); f = 2'-fluoro

B1: 10F: 5′ppp 2′F pyrimidine ssRNA aptamer, 71 nt, human melanocytic cell-targeting, SEQ ID NO: 4 (nucleic acid)
chain: {ppp}-rGrGrGrArGrGrAfCrGrAfUrGfCrGrGfUrAfCfCfUrGrAfCrArGfCrAfUfCfUfUrGrAfUrArAfUrGrGfUfCfCfUrAfCrGrGrArGfCfCrGfUfUfCfCrArGrAfCrGrAfCfUfCrGfCfCfCrGrA
On to B1, for which the “cellular stability compared to unmodified RNAs” value with WM266.4 cells was “improve cellular stability”. In addition, the “stimulation of TLR3 reporter cells (SEAP)” value with human TLR3 is recorded as “not”. Besides, in the series with IL-8, the “IL-8 production, fold compared to unmodified 5′ppp RNAs” value is “over 2 fold” and the “IL-8 production, in words” value is “strong induction”. For the same molecule, the serum stability result in series [1] is given as “resistant to serum degradation”.

For the origin of these results see patent US10350158B2, “2′ fluoro-modified RNAs as immunostimulators” (DUKE UNIVERSITY, priority 2013, dated 2019).
